Test results: article PMC6284106

Key:
[1] = biological target: human IL-2Rβγ heterodimeric Fc fusion (human) (UniProt P14784)
[2] = biological target: cynomolgus IL-2Rβγ heterodimeric Fc fusion (cynomolgus) (UniProt Q38J85); experiment: SPR; Biacore T200; biotinylated IL2Rβγ-Fc heterodimer immobilised on streptavidin chips; fusion proteins injected 1.2-300 nM for 2 min, dissociation 10 min; regeneration 3 M MgCl2; global 1:1 model, 'apparent' KD (bivalent binding of the dimeric fusions)
[3] = biological target: human IL-2Rβγ heterodimeric Fc fusion (human) (UniProt P14784); experiment: as above
[4] = biological target: cynomolgus IL-2Rα, monomeric, his-tagged (cynomolgus); experiment: SPR; Biacore T200; monomeric his-tagged IL-2Rα immobilised by amine coupling on CM5 chips; 2-fold dilution series (0.41 nM-300 nM) of the IL-2 fusion protein injected for 90 s, dissociation 3 min; regeneration 10 mM glycine pH 1.5; steady state model
[5] = biological target: human IL-2Rα, monomeric, his-tagged (human) (UniProt P01589); experiment: as above
Sequence of UniProt P01589 (P01589 22-272): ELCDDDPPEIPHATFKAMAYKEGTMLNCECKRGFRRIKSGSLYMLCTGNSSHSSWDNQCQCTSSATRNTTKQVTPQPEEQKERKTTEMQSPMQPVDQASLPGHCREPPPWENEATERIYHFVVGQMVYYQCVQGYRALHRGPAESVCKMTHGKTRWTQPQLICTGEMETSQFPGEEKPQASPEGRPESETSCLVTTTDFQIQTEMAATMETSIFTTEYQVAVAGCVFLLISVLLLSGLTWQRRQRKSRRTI

[6] = biological target: human IL-2Rβγ heterodimeric Fc fusion (human) (UniProt P14784); remark: listed apart in the source

| Kd [2] [nM] | Kd [3] [nM] | Kd [4] [nM] | Kd [5] [nM] | Substance | other results |
| --- | --- | --- | --- | --- | --- |
| 0.04 | 0.003 |  |  | IgG-(IL-2)2 (from UniProt P60568 21-153) | EC50 of pSTAT5 induction in memory and naïve Tregs, human whole blood [1]: 0.3 pM |
|  |  | 15 | 5 | IgG-(IL-2)2 (wild-type dimer: two human IL-2 fused to a non-targeted, effector-silent human IgG1) (from UniProt P60568 21-153) |  |
| 0.57 | 0.24 |  |  | IgG-(IL-2N88D)2 (from UniProt P60568 21-153) | EC50 of pSTAT5 induction in CD4+ effector memory T cells, human whole blood [6]: > 10000 pM; EC50 of pSTAT5 induction in CD4+ naïve Tregs, human whole blood [6]: 18 pM; EC50 of pSTAT5 induction in CD56bright NK cells, human whole blood [6]: > 1000 pM |
|  |  | 30 | 22 | IgG-(IL-2N88D)2 (two human IL-2 N88D muteins fused to a non-targeted, effector-silent human IgG1) (from UniProt P60568 21-153) |  |
| 0.18 | 0.04 |  |  | IgG-IL-2 (from UniProt P60568 21-153) |  |
|  |  | 30 | 15 | IgG-IL-2 (wild-type monomer: one human IL-2 fused to a non-targeted, effector-silent human IgG1) (from UniProt P60568 21-153) |  |
